This note sets out measurements from article doi:10.1101/2021.05.27.445985.

The experiment concerns the target Cy5-labeled human neutrophil peptide 1 (HNP1) (human). The experiment can be described thus: fluorescence polarisation. For orientation: Fluorescence polarisation rises when a labelled molecule tumbles more slowly, as on binding a larger partner.

As usually defined, the Kd is the concentration at which binding is half-saturated. High values mean a looser complex, low ones a tighter complex. The substance “Bovine serum albumin (from UniProt P02769 25-607) (natural protein)” registered a Kd of 3.4 µM.
